Patent publication US20080318246A1, “Deeply quenched enzyme sensors” (The Albert Einstein College of Medicine of Yeshiva …, priority 2007, published 2008)

Target: 14-3-3τ (UniProt P27348)
Assay: cell-based or functional assay

Sequence of 14-3-3τ (P27348 whole entry): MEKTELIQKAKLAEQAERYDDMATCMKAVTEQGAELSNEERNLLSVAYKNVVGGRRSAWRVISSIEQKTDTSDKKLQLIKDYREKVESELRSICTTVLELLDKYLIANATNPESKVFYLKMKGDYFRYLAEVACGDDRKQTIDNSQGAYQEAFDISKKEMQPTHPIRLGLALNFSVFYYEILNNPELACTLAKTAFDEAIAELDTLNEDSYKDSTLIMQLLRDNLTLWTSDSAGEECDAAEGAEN

“P4, Ac-GRDap(Pyr)GRRFSYP-amide, serine-phosphorylated by PKA in the assay (peptide)” was tested, and the % Fluorescence Enhancement on phosphorylation, no quenching dye was 40%, the PKA-induced fluorescence change; Alizarin Red 5x was 1.36 fold and the PKA-induced fluorescence change; Alizarin Red 10x was 1.33 fold. The PKA-induced fluorescence change; Alizarin Red 25x was 1.23 fold, the PKA-induced fluorescence change; Alizarin Red 50x was 1.07 fold and the PKA-induced fluorescence change; Aniline Blue WS 5x was 2.34 fold. It also gave a PKA-induced fluorescence change; Aniline Blue WS 10x of 4.82 fold, a PKA-induced fluorescence change; Aniline Blue WS 25x of 5.58 fold and a PKA-induced fluorescence change; Aniline Blue WS 50x of 1.4 fold. It also gave a PKA-induced fluorescence change; Chlorazol Black E 5x of 4.01 fold, a PKA-induced fluorescence change; Chlorazol Black E 10x of 0.93 fold and a PKA-induced fluorescence change; Chlorazol Black E 25x of 0.55 fold. It also gave a PKA-induced fluorescence change; Chlorazol Black E 50x of 0.87 fold, a PKA-induced fluorescence change; Eriochrome Black T 5x of 1.32 fold and a PKA-induced fluorescence change; Eriochrome Black T 10x of 1.12 fold. The PKA-induced fluorescence change; Eriochrome Black T 25x was 0.59 fold, the PKA-induced fluorescence change; Eriochrome Black T 50x was 0.59 fold and the PKA-induced fluorescence change; Evans Blue 5x was 0.98 fold. For the same substance, the PKA-induced fluorescence change; Evans Blue 10x was 0.91 fold, the PKA-induced fluorescence change; Evans Blue 25x was 0.89 fold and the PKA-induced fluorescence change; Evans Blue 50x was 0.91 fold. For the same substance, the PKA-induced fluorescence change; Ponceau S 5x was 2.26 fold, the PKA-induced fluorescence change; Ponceau S 10x was 2.63 fold and the PKA-induced fluorescence change; Ponceau S 25x was 2.88 fold. It also gave a PKA-induced fluorescence change; Ponceau S 50x of 2.69 fold, a PKA-induced fluorescence change; Reactive Blue 2 5x of 2.16 fold and a PKA-induced fluorescence change; Reactive Blue 2 10x of 2.66 fold. For the same substance, the PKA-induced fluorescence change; Reactive Blue 2 25x was 3.55 fold, the PKA-induced fluorescence change; Reactive Blue 2 50x was 4.27 fold and the PKA-induced fluorescence change; Rose Bengal 5x was 6.52 fold. For the same substance, the PKA-induced fluorescence change; Rose Bengal 10x was 2.88 fold, the PKA-induced fluorescence change; Rose Bengal 25x was 1.1 fold and the PKA-induced fluorescence change; Rose Bengal 50x was 0.91 fold. It also gave a PKA-induced fluorescence change; Tartrazine 5x of 1.28 fold, a PKA-induced fluorescence change; Tartrazine 10x of 1.42 fold and a PKA-induced fluorescence change; Tartrazine 25x of 1.46 fold. The PKA-induced fluorescence change; Tartrazine 50x was 1.47 fold, the PKA-induced fluorescence change; Trypan Blue 5x was 3.03 fold and the PKA-induced fluorescence change; Trypan Blue 10x was 2.18 fold. It also gave a PKA-induced fluorescence change; Trypan Blue 25x of 1.72 fold and a PKA-induced fluorescence change; Trypan Blue 50x of 2.76 fold.

In the case of “P3, Ac-GRTDap(Pyr)RRFSYP-amide, serine-phosphorylated by PKA in the assay (peptide)”, the % Fluorescence Enhancement on phosphorylation, no quenching dye is reported as 19%, the PKA-induced fluorescence change; Alizarin Red 5x is reported as 1.28 fold and the PKA-induced fluorescence change; Alizarin Red 10x is reported as 1.21 fold. For the same substance, the PKA-induced fluorescence change; Alizarin Red 25x was 1.17 fold, the PKA-induced fluorescence change; Alizarin Red 50x was 1.05 fold and the PKA-induced fluorescence change; Aniline Blue WS 5x was 1.5 fold. For the same substance, the PKA-induced fluorescence change; Aniline Blue WS 10x was 2.17 fold, the PKA-induced fluorescence change; Aniline Blue WS 25x was 3.79 fold and the PKA-induced fluorescence change; Aniline Blue WS 50x was 0.99 fold. For the same substance, the PKA-induced fluorescence change; Chlorazol Black E 5x was 1.79 fold, the PKA-induced fluorescence change; Chlorazol Black E 10x was 0.71 fold and the PKA-induced fluorescence change; Chlorazol Black E 25x was 0.92 fold. For the same substance, the PKA-induced fluorescence change; Chlorazol Black E 50x was 0.25 fold, the PKA-induced fluorescence change; Eriochrome Black T 5x was 1.1 fold and the PKA-induced fluorescence change; Eriochrome Black T 10x was 1.02 fold. For the same substance, the PKA-induced fluorescence change; Eriochrome Black T 25x was 0.58 fold, the PKA-induced fluorescence change; Eriochrome Black T 50x was 0.31 fold and the PKA-induced fluorescence change; Evans Blue 5x was 1.1 fold. The PKA-induced fluorescence change; Evans Blue 10x was 1.06 fold, the PKA-induced fluorescence change; Evans Blue 25x was 1.06 fold and the PKA-induced fluorescence change; Evans Blue 50x was 0.99 fold. The PKA-induced fluorescence change; Ponceau S 5x was 1.81 fold, the PKA-induced fluorescence change; Ponceau S 10x was 2.26 fold and the PKA-induced fluorescence change; Ponceau S 25x was 2.75 fold. The PKA-induced fluorescence change; Ponceau S 50x was 2.88 fold, the PKA-induced fluorescence change; Reactive Blue 2 5x was 1.48 fold and the PKA-induced fluorescence change; Reactive Blue 2 10x was 2.29 fold. The PKA-induced fluorescence change; Reactive Blue 2 25x was 3.56 fold, the PKA-induced fluorescence change; Reactive Blue 2 50x was 1.68 fold and the PKA-induced fluorescence change; Rose Bengal 5x was 2.7 fold. For the same substance, the PKA-induced fluorescence change; Rose Bengal 10x was 1.98 fold, the PKA-induced fluorescence change; Rose Bengal 25x was 1.13 fold and the PKA-induced fluorescence change; Rose Bengal 50x was 0.97 fold. It also gave a PKA-induced fluorescence change; Tartrazine 5x of 1.19 fold, a PKA-induced fluorescence change; Tartrazine 10x of 1.34 fold and a PKA-induced fluorescence change; Tartrazine 25x of 1.47 fold. For the same substance, the PKA-induced fluorescence change; Tartrazine 50x was 1.02 fold, the PKA-induced fluorescence change; Trypan Blue 5x was 2.23 fold and the PKA-induced fluorescence change; Trypan Blue 10x was 2.72 fold. For the same substance, the PKA-induced fluorescence change; Trypan Blue 25x was 1.91 fold and the PKA-induced fluorescence change; Trypan Blue 50x was 1.6 fold.

“P2, Ac-GRTGRRDap(Pyr)SYP-amide, serine-phosphorylated by PKA in the assay (peptide)” showed a % Fluorescence Enhancement on phosphorylation, no quenching dye of 51%, a PKA-induced fluorescence change; Alizarin Red 5x of 1.59 fold and a PKA-induced fluorescence change; Alizarin Red 10x of 1.38 fold. For the same substance, the PKA-induced fluorescence change; Alizarin Red 25x was 1.37 fold, the PKA-induced fluorescence change; Alizarin Red 50x was 1.3 fold and the PKA-induced fluorescence change; Aniline Blue WS 5x was 1.85 fold. The PKA-induced fluorescence change; Aniline Blue WS 10x was 2.48 fold, the PKA-induced fluorescence change; Aniline Blue WS 25x was 2.52 fold and the PKA-induced fluorescence change; Aniline Blue WS 50x was 1.83 fold. It also gave a PKA-induced fluorescence change; Chlorazol Black E 5x of 2.26 fold, a PKA-induced fluorescence change; Chlorazol Black E 10x of 2.84 fold and a PKA-induced fluorescence change; Chlorazol Black E 25x of 0.6 fold. For the same substance, the PKA-induced fluorescence change; Chlorazol Black E 50x was 0.35 fold, the PKA-induced fluorescence change; Eriochrome Black T 5x was 1.46 fold and the PKA-induced fluorescence change; Eriochrome Black T 10x was 1.42 fold. It also gave a PKA-induced fluorescence change; Eriochrome Black T 25x of 1.13 fold, a PKA-induced fluorescence change; Eriochrome Black T 50x of 3.71 fold and a PKA-induced fluorescence change; Evans Blue 5x of 1.92 fold. The PKA-induced fluorescence change; Evans Blue 10x was 1.37 fold, the PKA-induced fluorescence change; Evans Blue 25x was 1.01 fold and the PKA-induced fluorescence change; Evans Blue 50x was 0.94 fold. The PKA-induced fluorescence change; Ponceau S 5x was 1.93 fold, the PKA-induced fluorescence change; Ponceau S 10x was 1.92 fold and the PKA-induced fluorescence change; Ponceau S 25x was 4.61 fold. For the same substance, the PKA-induced fluorescence change; Ponceau S 50x was 6.57 fold, the PKA-induced fluorescence change; Reactive Blue 2 5x was 1.99 fold and the PKA-induced fluorescence change; Reactive Blue 2 10x was 2.08 fold. It also gave a PKA-induced fluorescence change; Reactive Blue 2 25x of 5.66 fold, a PKA-induced fluorescence change; Reactive Blue 2 50x of 6.3 fold and a PKA-induced fluorescence change; Rose Bengal 5x of 2.58 fold. The PKA-induced fluorescence change; Rose Bengal 10x was 2.87 fold, the PKA-induced fluorescence change; Rose Bengal 25x was 1.58 fold and the PKA-induced fluorescence change; Rose Bengal 50x was 0.72 fold. For the same substance, the PKA-induced fluorescence change; Tartrazine 5x was 1.41 fold, the PKA-induced fluorescence change; Tartrazine 10x was 1.61 fold and the PKA-induced fluorescence change; Tartrazine 25x was 1.82 fold. For the same substance, the PKA-induced fluorescence change; Tartrazine 50x was 2.51 fold, the PKA-induced fluorescence change; Trypan Blue 5x was 2.2 fold and the PKA-induced fluorescence change; Trypan Blue 10x was 2.81 fold. The PKA-induced fluorescence change; Trypan Blue 25x was 5.11 fold, the PKA-induced fluorescence change; Trypan Blue 50x was 6.03 fold and the Phosphorylation-induced fluorescence fold-change; P2/Ponceau S (1:50), plate reader - bottom read was 7 fold. The Phosphorylation-induced fluorescence fold-change; P2/Ponceau S (1:50), plate reader - top read was 15 fold and the Phosphorylation-induced fluorescence fold-change; P2/Ponceau S (1:50), spectrofluorimeter was 21 fold.

With “phosphorylated P5 peptide AcDap(Pyr)RTGRRFS(PO3 2-)YP-amide” the % Fluorescence Enhancement on phosphorylation, no quenching dye was 64%, the PKA-induced fluorescence change; Alizarin Red 5x was 1.7 fold and the PKA-induced fluorescence change; Alizarin Red 10x was 1.59 fold. It also gave a PKA-induced fluorescence change; Alizarin Red 25x of 1.49 fold, a PKA-induced fluorescence change; Alizarin Red 50x of 1.5 fold and a PKA-induced fluorescence change; Aniline Blue WS 5x of 3.02 fold. The PKA-induced fluorescence change; Aniline Blue WS 10x was 5.36 fold, the PKA-induced fluorescence change; Aniline Blue WS 25x was 6.04 fold and the PKA-induced fluorescence change; Aniline Blue WS 50x was 1.23 fold. The PKA-induced fluorescence change; Chlorazol Black E 5x was 5.62 fold, the PKA-induced fluorescence change; Chlorazol Black E 10x was 1.52 fold and the PKA-induced fluorescence change; Chlorazol Black E 25x was 0.21 fold. For the same substance, the PKA-induced fluorescence change; Chlorazol Black E 50x was 0.25 fold, the PKA-induced fluorescence change; Eriochrome Black T 5x was 1.61 fold and the PKA-induced fluorescence change; Eriochrome Black T 10x was 1.73 fold. The PKA-induced fluorescence change; Eriochrome Black T 25x was 0.84 fold, the PKA-induced fluorescence change; Eriochrome Black T 50x was 1.12 fold and the PKA-induced fluorescence change; Evans Blue 5x was 1.33 fold. The PKA-induced fluorescence change; Evans Blue 10x was 0.92 fold, the PKA-induced fluorescence change; Evans Blue 25x was 0.84 fold and the PKA-induced fluorescence change; Evans Blue 50x was 0.78 fold. For the same substance, the PKA-induced fluorescence change; Ponceau S 5x was 2.85 fold, the PKA-induced fluorescence change; Ponceau S 10x was 3.3 fold and the PKA-induced fluorescence change; Ponceau S 25x was 3.23 fold. It also gave a PKA-induced fluorescence change; Ponceau S 50x of 4.36 fold, a PKA-induced fluorescence change; Reactive Blue 2 5x of 2.28 fold and a PKA-induced fluorescence change; Reactive Blue 2 10x of 3.99 fold. The PKA-induced fluorescence change; Reactive Blue 2 25x was 6.44 fold, the PKA-induced fluorescence change; Reactive Blue 2 50x was 5.79 fold and the PKA-induced fluorescence change; Rose Bengal 5x was 8.36 fold. The PKA-induced fluorescence change; Rose Bengal 10x was 3.45 fold, the PKA-induced fluorescence change; Rose Bengal 25x was 1.02 fold and the PKA-induced fluorescence change; Rose Bengal 50x was 0.95 fold. For the same substance, the PKA-induced fluorescence change; Tartrazine 5x was 1.43 fold, the PKA-induced fluorescence change; Tartrazine 10x was 1.52 fold and the PKA-induced fluorescence change; Tartrazine 25x was 1.79 fold. For the same substance, the PKA-induced fluorescence change; Tartrazine 50x was 2.05 fold, the PKA-induced fluorescence change; Trypan Blue 5x was 6.21 fold and the PKA-induced fluorescence change; Trypan Blue 10x was 2.72 fold. It also gave a PKA-induced fluorescence change; Trypan Blue 25x of 3.61 fold, a PKA-induced fluorescence change; Trypan Blue 50x of 3.48 fold and a Phosphorylation-induced fluorescence fold-change; P5/Rose Bengal (1:5), plate reader - bottom read of 8 fold. For the same substance, the Phosphorylation-induced fluorescence fold-change; P5/Rose Bengal (1:5), plate reader - top read was 30 fold and the Phosphorylation-induced fluorescence fold-change; P5/Rose Bengal (1:5), spectrofluorimeter was 64 fold.
